Data as given in article PMC2174332.

Target: muscle-specific receptor tyrosine kinase (MuSK), Torpedo orthologue (Torpedo (endogenous in electric tissue))
Test: cross-linking

percent of total MuSK in the 140-kD cross-link product: < 30%
Substance: 40-kD COOH-terminal fragment of MAGI-1c (Torpedo) (domain or fragment)
